The values below come from patent US20230303711A1 (BIO THERA SOLUTIONS, published 2023).

B1: Antibody 18 (antibody, human IgG1, kappa, V domains shown)
VH: QVQLQESGPGLVKPSETLSLTCTVSGGSLDNYYWSWIRQPPGKGLEWIGYIYYSGNTNYNPSLKSRVTISVDTSKNQFSLRLRSVTAADTAVYYCARGRGIFGYWGQGTLVTVSS
VL: DIQMTQSPSSVSASVGDRVTISCRANQAIGTWLAWYQQKPGKAPKLLIYAASTLQSGVPSRFSGSGSGTEFTLTISSLQAEDVAVYYCQQYYTTPLTFGGGTKLEIKR
notes: Full-length IgG1
B2: Antibody 25 (antibody, human IgG1, kappa, V domains shown)
VH: QVQLQESGPGLVKPSETLSLTCTVSGGSLDNYYWSWIRQPPGKGLEWIGYIYYSGNTNYNPSLKSRVTISVDTSKNQFSLRLRSVTAADTAVYYCARGGRIFGHWGQGTLVTVSS
VL: DIQMTQSPSSVSASVGDRVTISCRANQAIGTWLAWYQQKPGKAPKLLIYAASTLQSGVPSRFSGSGSGTEFTLTISSLQAEDVAVYYCQQYYTTPLTFGGGTKLEIKR
notes: Full-length IgG1
B3: Antibody 24 (antibody, human IgG1, kappa, V domains shown)
VH: QVQLQESGPGLVKPSETLSLTCTVSGGSLDNYYWSWIRQPPGKGLEWIGRIYGDSATNYNPSLKSRVTISVDTSKNQFSLRLRSVTAADTAVYYCARGGRIFSGYWGQGTLVTVSS
VL: DIQMTQSPSSVSASVGDRVTISCRANQAIGTWLAWYQQKPGKAPKLLIYAASTLQSGVPSRFSGSGSGTEFTLTISSLQAEDVAVYYCQQYYTTPLTFGGGTKLEIKR
notes: Full-length IgG1
B4: Antibody 16 (antibody, human IgG1, kappa, V domains shown)
VH: QVQLQESGPGLVKPSETLSLTCTVSGGSLDNYYWSWIRQPPGKGLEWIGYIYYSGNTNYNPSLKSRVTISVDTSKNQFSLRLRSVTAADTAVYYCARGGRIFSGYWGQGTLVTVSS
VL: DIQMTQSPSSVSASVGDRVTISCRANQAIGTWLAWYQQKPGKAPKLLIYAASTLQSGVPSRFSGSGSGTEFTLTISSLQAEDVAVYYCQQYYTTPLTFGGGTKLEIKR
notes: Full-length IgG1
B5: Antibody L1 (antibody, human IgG1, kappa)
heavy: not shown
light: EIVLTQSPSTLSASVGDRVTIPCRASLSIGSFLNWYQQRPGEAPKLLIFAASSLRSGVPSRFSGSGSGTDFTLTISGLQPEDFATYYCQQTYTTPYTFGQGTKVEIKRTVAAPSVFIFPPSDEQLKSGTASVVCLLNNFYPREAKVQWKVDNALQSGNSQESVTEQDSKDSTYSLSSTLTLSKADYEKHKVYACEVTHQGLSSPVTKSFNRGEC
notes: Full-length IgG1
B6: Antibody L12-10 (antibody, human IgG1, kappa)
heavy: not shown
light: EIVLTQSPSSLSASVGDRVTIPCRASLSIGSFLNWYQQRPGEAPKLLIFAASSLRSGVPSRFSGSGSGTDFTLTISSLQPEDFATYYCQQTYTTPYTFGQGTKVEIKRTVAAPSVFIFPPSDEQLKSGTASVVCLLNNFYPREAKVQWKVDNALQSGNSQESVTEQDSKDSTYSLSSTLTLSKADYEKHKVYACEVTHQGLSSPVTKSFNRGEC
notes: Full-length IgG1
B7: Antibody L12-2 (antibody, human IgG1, kappa, V domains shown)
VH: QVQLQESGPGLVKPSETLSLTCTVSGGSLDNYYWSWIRQPPGKGLEWIGYIYYSGNTNYNPSLKSRVTISVDTSKNQFSLKLSSVTAADTAVYYCARGGRFLERYWGQGTLVTVSS
VL: EIVLTQSPSSLSASVGDRVTIPCRASLSIGSFLNWYQQRPGEAPKLLIFAASSLRSGVPSRFSGSGSGTDFTLTISSLQPEDFATYYCQQTYTTPYTFGQGTKVEIKR
notes: Full-length IgG1
B8: Antibody L12-11 (antibody, human IgG1, kappa)
heavy: not shown
light: DIQMTQSPSSLSASVGDRVTITCRASLSIGSFLNWYQQKPGKAPKLLIYAASSLRSGVPSRFSGSGSGTDFTLTISSLQPEDFATYYCQQTYTTPYTFGQGTKVEIKRTVAAPSVFIFPPSDEQLKSGTASVVCLLNNFYPREAKVQWKVDNALQSGNSQESVTEQDSKDSTYSLSSTLTLSKADYEKHKVYACEVTHQGLSSPVTKSFNRGEC
notes: Full-length IgG1
B9: Antibody L12-1 (antibody, human IgG1, kappa)
heavy: not shown
light: EIVLTQSPSSLSASVGDRVTITCRASLSIGSFLNWYQQKPGKAPKLLIYAASSLRSGVPSRFSGSGSGTDFTLTISSLQPEDFATYYCQQTYTTPYTFGQGTKVEIKRTVAAPSVFIFPPSDEQLKSGTASVVCLLNNFYPREAKVQWKVDNALQSGNSQESVTEQDSKDSTYSLSSTLTLSKADYEKHKVYACEVTHQGLSSPVTKSFNRGEC
notes: Full-length IgG1
B10: Antibody L12-7 (antibody, human IgG1, kappa)
heavy: not shown
light: EIVLTQSPSSLSASVGDRVTITCRASLSIGSFLNWYQQKPGKAPKLLIFAASSLRSGVPSRFSGSGSGTDFTLTISSLQPEDFATYYCQQTYTTPYTFGQGTKVEIKRTVAAPSVFIFPPSDEQLKSGTASVVCLLNNFYPREAKVQWKVDNALQSGNSQESVTEQDSKDSTYSLSSTLTLSKADYEKHKVYACEVTHQGLSSPVTKSFNRGEC
notes: Full-length IgG1
B11: Antibody L12-5 (antibody, human IgG1, kappa)
heavy: not shown
light: EIVLTQSPSSLSASVGDRVTITCRASLSIGSFLNWYQQKPGKAPKLLIYAASSLRSGVPSRFSGSGSGTDFTLTISSLQPEDFATYYCQQTYTTPYTFGQGTKVEIKRTVAAPSVFIFPPSDEQLKSGTASVVCLLNNFYPREAKVQWKVDNALQSGNSQESVTEQDSKDSTYSLSSTLTLSKADYEKHKVYACEVTHQGLSSPVTKSFNRGEC
notes: Full-length IgG1
B12: Antibody L12-4 (antibody, human IgG1, kappa)
heavy: not shown
light: EIVLTQSPSSLSASVGDRVTIPCRASLSIGSFLNWYQQKPGKAPKLLIFAASSLRSGVPSRFSGSGSGTDFTLTISSLQPEDFATYYCQQTYTTPYTFGQGTKVEIKRTVAAPSVFIFPPSDEQLKSGTASVVCLLNNFYPREAKVQWKVDNALQSGNSQESVTEQDSKDSTYSLSSTLTLSKADYEKHKVYACEVTHQGLSSPVTKSFNRGEC
notes: Full-length IgG1
B13: Antibody L12-3 (antibody, human IgG1, kappa, V domains shown)
VH: QVQLQESGPGLVKPSETLSLTCTVSGGSLDNYYWSWIRQPPGKGLEWIGYIYYSGNTNYNPSLKSRVTISVDTSKNQFSLKLSSVTAADTAVYYCARGGRFLERYWGQGTLVTVSS
VL: EIVLTQSPSSLSASVGDRVTITCRASLSIGSFLNWYQQKPGKAPKLLIFAASSLRSGVPSRFSGSGSGTDFTLTISSLQPEDFATYYCQQTYTTPYTFGQGTKVEIKR
notes: Full-length IgG1
B14: Antibody L12-9 (antibody, human IgG1, kappa)
heavy: not shown
light: DIQMTQSPSSLSASVGDRVTITCRASLSIGSFLNWYQQKPGKAPKLLIYAASSLRSGVPSRFSGSGSGTDFTLTISSLQPEDFATYYCQQTYTTPYTFGQGTKVEIKRTVAAPSVFIFPPSDEQLKSGTASVVCLLNNFYPREAKVQWKVDNALQSGNSQESVTEQDSKDSTYSLSSTLTLSKADYEKHKVYACEVTHQGLSSPVTKSFNRGEC
notes: Full-length IgG1
B15: Antibody 3 (antibody, human IgG1, kappa, V domains shown)
VH: QVQLQESGPGLVKPSETLSLTCTVSGGSLDGYYWSWIRQPPGKGLEWIGRIYGNSTTNYNPSLKSRVTISVDTSKNQFSLRLRSVTAADTAVYYCARGGRIFAGYWGQGTLVTVSS
VL: DIQMTQSPSSVSASVGDRVTISCRANQAIGTWLAWYQQKPGKAPKLLIYAASTLQSGVPSRFSGSGSGTEFTLTISSLQAEDVAVYYCQQYYTTPLTFGGGTKLEIKR
notes: Full-length IgG1
B16: Antibody 3-3 (antibody, human IgG1, kappa, V domains shown)
VH: QVQLQESGPGLVKPSETLSLTCTVSGGSLDNYYWSWIRQPPGKGLEWIGYIYYSGNTNYNPSLKSRVTISVDTSKNQFSLRLRSVTAADTAVYYCARGGRIFGGYWGQGTLVTVSS
VL: DIQMTQSPSSVSASVGDRVTISCRANQAIGTWLAWYQQKPGKAPKLLIYAASTLQSGVPSRFSGSGSGTEFTLTISSLQAEDVAVYYCQQYYTTPLTFGGGTKLEIKR
notes: Full-length IgG1
B17: Antibody 11 (antibody, human IgG1, kappa, V domains shown)
VH: QVQLQESGPGLVKPSETLSLTCTVSGGSLDGYYWSWIRQPPGKGLEWIGRIYDGSGTNYNPSLKSRVTISVDTSKNQFSLRLRSVTAADTAVYYCARGGRIFGGYWGQGTLVTVSS
VL: DIQMTQSPSSVSASVGDRVTISCRANQAIGTWLAWYQQKPGKAPKLLIYAASTLQSGVPSRFSGSGSGTEFTLTISSLQAEDVAVYYCQQYYTTPLTFGGGTKLEIKR
notes: Full-length IgG1
B18: Antibody 3-6 (antibody, human IgG1, kappa, V domains shown)
VH: QVQLQESGPGLVKPSETLSLTCTVSGGSLDNYYWSWIRQPPGKGLEWIGYIYYSGNTNYNPSLKSRVTISVDTSKNQFSLRLRSVTAADTAVYYCARGGRIFAGYWGQGTLVTVSS
VL: DIQMTQSPSSVSASVGDRVTISCRANQAIGTWLAWYQQKPGKAPKLLIYAASTLQSGVPSRFSGSGSGTEFTLTISSLQAEDVAVYYCQQYYTTPLTFGGGTKLEIKR
notes: Full-length IgG1
B19: Antibody 10 (antibody, human IgG1, kappa, V domains shown)
VH: QVQLQESGPGLVKPSETLSLTCTVSGGSLDNYYWSWIRQPPGKGLEWIGRIYYNGNTNYNPSLKSRVTISVDTSKNQFSLRLRSVTAADTAVYYCARGGRILAGYWGQGTLVTVSS
VL: DIQMTQSPSSVSASVGDRVTISCRANQAIGTWLAWYQQKPGKAPKLLIYAASTLQSGVPSRFSGSGSGTEFTLTISSLQAEDVAVYYCQQYYTTPLTFGGGTKLEIKR
notes: Full-length IgG1
B20: Antibody 6 (antibody, human IgG1, kappa, V domains shown)
VH: QVQLQESGPGLVKPSETLSLTCTVSGGSLNDYYWSWIRQPPGKGLEWIGRIYGNGDTNYNPSLKSRVTISVDTSKNQFSLRLRSVTAADTAVYYCARGGRILAGYWGQGTLVTVSS
VL: DIQMTQSPSSVSASVGDRVTISCRANQAIGTWLAWYQQKPGKAPKLLIYAASTLQSGVPSRFSGSGSGTEFTLTISSLQAEDVAVYYCQQYYTTPLTFGGGTKLEIKR
notes: Full-length IgG1

By IC50 is commonly meant the concentration needed to halve the response being measured. High values mean weaker potency, low ones greater potency. One may read the Kd as the constant that tells how readily two partners part at equilibrium.

T1 sequence (Q08722 other isoform, or with tags, fused parts or gaps): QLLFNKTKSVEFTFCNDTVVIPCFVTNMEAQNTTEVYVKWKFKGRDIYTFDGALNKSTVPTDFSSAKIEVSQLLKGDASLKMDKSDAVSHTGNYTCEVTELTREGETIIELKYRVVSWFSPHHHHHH

One assay concerns the target T1, His-tagged human CD47-ECD protein (CD47-His) (human, UniProt Q08722 19-139).
T1 construct: Expressed in HEK293F cells; also called CD47-His antigen
Nature of the assay: competitive ELISA on coated CD47-His (2 µg/mL); blocked ligand SIRPα-Fc-Bio (0.1 µg/mL), HRP-streptavidin, OD450; value is parameter C of the printed 4-parameter fit.
Molecule B1 yielded an IC50 of 1.23 mg/L. The same measure, in the same setting: the value for B2 was 1.31 mg/L. On the same count and under the same terms, the value for B3 was 1.41 mg/L; that for B4 was 0.975 mg/L.

In another assay the target is T1, His-tagged human CD47-ECD protein …. The description is as above. This is another data set of the same source.
As for B5, the IC50 was 0.967 mg/L.

The target is the same in a further assay. The experiment in a line: BLI (Fortebio), antibody on protein A sensor, CD47-His in solution. On the technique in general: Biolayer interferometry detects binding as a change in optical thickness at a sensor tip.
Method: A protein A sensor was pre-wetted in PBS for 10 min for later use. The test antibodies were diluted to 10 μg/mL with PBST haying a pH of 6.8 and containing 0.5% BSA (hereinafter referred to as dilution buffer). The PA sensor was immobilized in the antibodies until the signal was about 1.7 nm. […] The dilution buffer, the antigen dilutions at the gradient concentrations, a regeneration buffer (1 M MgCl₂ at pH 8.4) and a neutralization buffer (PBST) were sequentially added to the corresponding columns in a 96-well plate, and the following steps were performed: (1) Baseline: 60 seconds of baseline detection in the dilution buffer; (2) Association: 100 seconds of association in the serial dilutions of the antigen and a sample blanks (dilution buffer); (3) Dissociation: 700 seconds of dissociation in the dilution buffer; (4) Regeneration: 5 seconds of regeneration in the regeneration buffer; (5) Neutralization: 5 seconds of neutralization in the neutralization buffer; and (6) 3 Regeneration-Neutralization cycles.
The data was processed and analyzed using Data Analysis 8.2; and the sample data was fitted after reference (sample blank) signal subtraction to obtain an affinity constant (KD).
Molecule B6 showed a Kd of 0.195 nM.

B7 registered a dissociation constant (Kd) of 0.122 nM. Same read-out and setting: the value for B8 was 0.175 nM. The same measure, in the same setting: the value for B9 was 0.152 nM; that for B10 was 0.149 nM; that for B11 was 0.138 nM. Still for that read-out and setting: with B12 the figure was 0.107 nM; with B13, 0.144 nM. As for B14, binding was characterised by a dissociation constant (Kd) of 0.124 nM.

The target is the same in the next assay. The experiment in a line: competitive ELISA on coated CD47-His (2 µg/mL); blocked ligand SIRPα-Fc-Bio (0.1 µg/mL), HRP-streptavidin, OD450; value is parameter C of the printed 4-parameter fit. The source holds these as a separate data set. For orientation: In an ELISA, binding on a coated surface is turned into a signal by an enzyme label.
The molecule B15 registered an IC50 of 0.844 mg/L. The same measure, in the same setting: with B16 the figure was 0.939 mg/L.

Molecule B17 had an IC50 of 0.921 mg/L.

B18 yielded a half-inhibitory concentration (IC50) of 1.12 mg/L. On the same count and under the same terms, the value for B19 was 1.06 mg/L; that for B20 was 1.1 mg/L.
